{"source": "paper PMC10275869", "about": "(Nature Communications, 2023)", "binders": {"B1": {"name": "mAb66 (human IgG1) (antibody, V domains shown)", "VH": "ETGSGGGLVKPGGTLTLTCKASGFTLSSYWMCWVRQAPGKGLELIACLYTNGATTWYASWVNGRFAISRSTSRNTVDLNMTSLTAADTATYFCARGSGSGWSWFNIWGPGTLVTVSS", "VL": "TGVMTQTPASVEAAVGGTVTIKCQASQNIISSLAWYQQKPGQRPKLLIYYASTLASGVPSRFKGSGSGTQFTLTISDLECADAATYYCQSYYYSGITYGNAFGGGTEVVVK"}, "B2": {"name": "12B2 (human IgG1) (antibody, V domains shown)", "VH": "QVQLKESGPGLVAPSQSLSITCTVSGFSLASYGVHWVRQPPGKGLEWLGVIWTGGSTNYNSALMSRLSINRDNSKSQVFLKLNSLQTDDTAIYYCARDRGYGYGGFAYWGQGTLVTVSA", "VL": "DIQMTQSPASLSASVGETVTITCRASENIYSYLAWYQHKQGKSPQLLVYNAKSLAEGVPSRFSGSGSGTQFSLKINSLQPEDFGSYYCQHHYGTPWTFGGGTKLEIK"}, "B3": {"name": "1F5 (human IgG1) (antibody, V domains shown)", "VH": "DVQLQESGPGLVKPSQSLSLTCSVTGYSITSDYYWNWIRQFPGNKLEWMGYVTYDGSNNYNPSLKNRISITRDSSKNQFFLKLNSVISEDTATYYCARFGSSYWAMDYWGQGTSLTVSS", "VL": "QIVLTQSPAIMSASLGEAITLTCSASSSVSYMHWYQQKSGTSPKLLIYSTSNLASGVPSRFSGSGSGTFYSLTISSVEAEDAADYYCHQWYSYPWTFGGGTKLEIK"}, "B4": {"name": "5B3 (human IgG1) (antibody, V domains shown)", "VH": "EVQLVESGGGLVKPGGSLKLSCAASGFTFSSYDMSWVRQTPEKRLEWVAMISSGGSYSYYPDSVKGRFTISRDNAKNTLYLQMSSLRSEDTAMYYCARQGDYAWFAYWGQGTLVTVSS", "VL": "DIQMTQSPASQSASLGESVTITCLASQTIGTWLAWYQQKPGKSPQLLIYAATSLADGVPSRFSGSGSGTKFSFKISSLQAEDFVSYYCQQFYSTPFTFGGGTKLEIK"}}}
{"target": "LayV F clamp2 (prefusion Langya virus fusion glycoprotein ectodomain stabilised with the clamp2 molecular … (Langya virus (GenBank UUV47205.1), stabilised, N-linked glycans at N65 and N459))", "test": "ELISA", "conditions": "both partners purified"}
{"binder": "B1", "binding result": "no binding (tested: 50 μg/mL)"}
{"binder": "B2", "binding result": "no binding (tested: 50 μg/mL)"}
{"binder": "B3", "binding result": "no binding (tested: 50 μg/mL)"}
{"binder": "B4", "binding result": "no binding (tested: 50 μg/mL)"}
{"target": "T1, prefusion clamp2 stabilized NiV F (Nipah virus, strain  (Q9IH63 …, UniProt Q9IH63, stabilised))", "T1 construct": "also called Nipah virus F", "test": "ELISA", "conditions": "both partners purified"}
{"binder": "B1", "binding result": "binds"}
{"binder": "B2", "binding result": "binds"}
{"binder": "B3", "binding result": "binds"}
{"binder": "B4", "binding result": "binds"}
